In patent US20240352128A1 (published 2024):
Like-named read-outs stand apart in the source and are kept apart here.

T1: cynomolgus monkey CD16a on HEK293 cells expressing cyno monkey CD16a (constructed by Genscript) (cynomolgus monkey, UniProt Q8SPW2 17-254)
T1 chain: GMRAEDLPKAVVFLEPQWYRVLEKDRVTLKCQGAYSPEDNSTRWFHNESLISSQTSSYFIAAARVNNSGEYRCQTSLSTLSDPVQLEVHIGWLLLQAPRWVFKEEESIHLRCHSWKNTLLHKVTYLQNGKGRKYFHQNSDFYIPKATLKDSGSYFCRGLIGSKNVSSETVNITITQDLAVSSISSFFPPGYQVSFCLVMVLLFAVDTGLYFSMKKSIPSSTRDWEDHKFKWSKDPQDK

T2: human CD16b as FACS target of FIGS. 6B-10B (human, UniProt O75015 17-200)
T2 chain: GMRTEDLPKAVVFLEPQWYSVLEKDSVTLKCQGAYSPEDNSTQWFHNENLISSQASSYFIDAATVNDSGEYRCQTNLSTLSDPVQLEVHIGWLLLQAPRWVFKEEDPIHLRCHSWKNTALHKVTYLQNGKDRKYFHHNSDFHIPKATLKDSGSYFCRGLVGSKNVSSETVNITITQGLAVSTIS


Tests used:
Test in all cases: FACS
[1] = biological target: T1, cynomolgus monkey CD16a on HEK293 cells …
[2] = biological target: T3, human CD16a on HEK293 cells expressing human CD16a (constructed by Genscript) (human, UniProt P08637 17-254)
[3] = biological target: T2, human CD16b as FACS target of FIGS. …
[4] = biological target: T3, human CD16a on HEK293 cells expressing …; remark: listed apart in the source
[5] = biological target: T2, human CD16b as FACS target of FIGS. …

T3 sequence (P08637 17-254): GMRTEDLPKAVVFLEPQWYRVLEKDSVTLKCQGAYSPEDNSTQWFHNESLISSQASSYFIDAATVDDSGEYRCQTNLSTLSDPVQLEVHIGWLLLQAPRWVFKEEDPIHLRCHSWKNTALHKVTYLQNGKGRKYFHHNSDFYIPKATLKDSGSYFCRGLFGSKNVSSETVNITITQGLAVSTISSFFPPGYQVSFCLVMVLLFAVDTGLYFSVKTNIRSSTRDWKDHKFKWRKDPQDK

EC50 [1] [pM]	EC50 [2] [pM]	EC50 [3] [pM]	EC50 [4] [pM]	EC50 [5] [pM]	Binder
738	419	62300	–	–	pTT5-AR8820-3.1 mIgG1Fc (Fc fusion) heavy: EVQLVESGGGLVQPGGSLRLSCAASGSSISRYAMAWYRQAPGKGRELVAVVRITGSPIYADFVGGRFTISRDNAKNSLYLQMNSLRAEDTAVYYCATGNFNTYTRRYSPSETWGQGTLVTVSSVPRDCGCKPCICTVPEVSSVFIFPPKPKDVLTITLTPKVTCVVVDISKDDPEVQFSWFVDDVEVHTAQTQPREEQFNSTFRSVSELPIMHQDWLNGKEFKCRVNSAAFPAPIEKTISKTKGRPKAPQVYTIPPPKEQMAKDKVSLTCMITDFFPEDITVEWQWNGQPAENYKNTQPIMDTDGSYFVYSKLNVQKSNWEAGNTFTCSVLHEGLHNHHTEKSLSHSPGK
751	452	61800	–	–	pTT5-AR8820-3.3 mIgG1Fc (Fc fusion) VHH-Fc: EVQLVESGGGLVQPGGSLRLSCAASGSSISRYAMAWYRQAPGKGRELVAVVRITGSPIYADFVGGRFTISRDNAKNSLYLQMNSLRAEDTAVYYCNTGNFNTYTRRYSPSETWGQGTLVTVSSVPRDCGCKPCICTVPEVSSVFIFPPKPKDVLTITLTPKVTCVVVDISKDDPEVQFSWFVDDVEVHTAQTQPREEQFNSTFRSVSELPIMHQDWLNGKEFKCRVNSAAFPAPIEKTISKTKGRPKAPQVYTIPPPKEQMAKDKVSLTCMITDFFPEDITVEWQWNGQPAENYKNTQPIMDTDGSYFVYSKLNVQKSNWEAGNTFTCSVLHEGLHNHHTEKSLSHSPGK
914	–	–	470	~497000	pTT5-AR8820-1.2mIgG1Fc (Fc fusion) heavy: QVQLVESGGGVVQPGGSLRLSCAASGSSISRYAMAWYRQAPGKGREWVAVVRITGSPIYADFVGGRFTISRDNSKNTLYLQMNSLRAEDTAVYYCATGNFNTYTRRYSPSETWGKGTTVTVSSVPRDCGCKPCICTVPEVSSVFIFPPKPKDVLTITLTPKVTCVVVDISKDDPEVQFSWFVDDVEVHTAQTQPREEQFNSTFRSVSELPIMHQDWLNGKEFKCRVNSAAFPAPIEKTISKTKGRPKAPQVYTIPPPKEQMAKDKVSLTCMITDFFPEDITVEWQWNGQPAENYKNTQPIMDTDGSYFVYSKLNVQKSNWEAGNTFTCSVLHEGLHNHHTEKSLSHSPGK
